Measurements reported in US20140308287A1 (SEA LANE BIOTECHNOLOGIES, published 2014).
Where a chain is given by its changes, count along the chain named. Read-outs that look alike come from different tables or passages of the source. Blank lines part the entries; values can stand above or below the binder they belong to.

What was measured:
[1] = target: T1, human ErbB3-Fc (R&D Systems) (human, UniProt P21860 20-643); assay: ELISA on ErbB3-Fc, soluble monovalent Sab (Example 42)
T1 construct: Bought protein; also called wild-type ErbB3-Fc fusion; immobilized ErbB3; not shown: Fc part of the bought fusion protein; not described

[2] = target: T1, human ErbB3-Fc (R&D Systems); assay: as above; remark: listed apart in the source

B1: 2995-B06 (other)
VH: EVQLLESGGGLVQPGGSLRLSCAASGFTFSNYGMHWVRQAPGKGLEWVALISSGGAYTYYADSVKGRFTISRDNSKNTLYLQMNSLRAEDTAVYYCAKDNFILLNSWFDYWGQGTLVTVSS
light: QPVLHQPPAMSSALGTTIRLTCTLRNDHDIGVYSVYWYQQRPGHPPRFLLRYFSQSDKSQGPQVPPRFSGSKDVARNRGYLSISELQPEDEAMYYCAMGARSSVTHVFGSGTQLTVLSQPKATPSVTLFPPSSEELQANKATLVCLMNDFYPGILTVTWKADGTPITQGVEMTTPSKQSNNKYAASSYLSLTPEQWRSRRSYSCQVMHEGSTVEKTVAPAECS
EC50 [1]: 0.01 nM

B10: 2995-C05 (other)
VH: B1 VH with N31D, G33W, L50A, G55S, A56S
surrogate light: B1 light
notes: copies: 1 + 1
EC50 [1]: 0.015 nM

B13: 2995-E12 (other)
VH: B1 VH with G33W, G55S, A56T, T58I, Y59S
light: B1 light
EC50 [1]: 0.04 nM

B17: 2995-C10 (other)
VH: B1 VH with N31S, G33W, L50G, S53G
light: B1 light
notes: copies: 1 + 1
EC50 [1]: 0.02 nM

B18: 2995-D08 (other)
VH: B1 VH with N31D, G33W, L50A, S53W, A56S
light: B1 light
EC50 [1]: 0.052 nM

B21: 2995-C02 (other)
VH: B1 VH with G33W, H35N, L50N, A56S
surrogate light: B1 light
notes: copies: 1 + 1
EC50 [1]: 0.028 nM

B23: 2995-B10 (other)
VH: B1 VH with N31S, G33W, L50A, S53A, G55S, A56G, T58I
surrogate light: B1 light
notes: copies: 1 + 1
EC50 [1]: 0.032 nM

B25: 2995-G10 (other)
VH: B1 VH with N31D, G33W, H35N, L50N, S53N, A56T, T58I
light: B1 light
EC50 [1]: 0.022 nM

B27: 2995-D03 (other)
VH: B1 VH with N31S, G33A, S53N, G55S, A56G, T58K
light: B1 light
notes: copies: 1 + 1
EC50 [1]: 0.015 nM

B31: 2995-E08 (other)
VH: B1 VH with N31S, G33W, L50G, A56S, T58K
light: B1 light
EC50 [1]: 0.039 nM

B32: 2995-C03 (other)
VH: B1 VH with N31S, G33W, L50G, S53G, A56R
surrogate light: B1 light
notes: copies: 1 + 1
EC50 [1]: 0.027 nM

B33: 2995-D11 (other)
VH: B1 VH with N31S, G33W, L50V, S53N, G54N, A56R, T58K
surrogate light: B1 light
notes: copies: 1 + 1
EC50 [1]: 0.027 nM

B34: 2995-F08 (other)
VH: B1 VH with N31S, G33W, A49S, L50G, S53N, G54N, A56R, T58K
light: B1 light
EC50 [1]: 0.059 nM

B35: 2995-D01 (other)
VH: B1 VH with N31S, G33W, H35S, S53N, A56S, Y57I, T58K
light: B1 light
EC50 [1]: 0.038 nM

B36: 2995-D07 (other)
VH: B1 VH with G33W, L50A, S53N, A56G, T58K
surrogate light: B1 light
notes: copies: 1 + 1
EC50 [1]: 0.033 nM

B39: 2995-C07 (other)
VH: B1 VH with G33W, G55S, A56T, T58I, Y59S, F108L
light: B1 light
EC50 [1]: 0.056 nM

Continued, values first:

EC50 [2]: 0.152 nM
B2: 3000-D07 (other)
VH: EVQLLESGGGLVQPGGSLRLSCAASGFTFSSYWMHWVRQAPGKGLEWVSLISASGSIKYYADSVKGRFTISRDNSKNTLYLQMNSLRAEDTAVYYCAKDNEKNLYTWLDYWGQGTLVTVSS
light: B1 light
notes: copies: 1 + 1

EC50 [2]: 0.179 nM
B3: 3000-B03 (other)
VH: B2 VH with S31N, S49A, A53N, S54N, S56T, I57Y, K58T
light: B1 light
notes: copies: 1 + 1

EC50 [2]: 0.121 nM
B4: 3000-E07 (other)
VH: B2 VH with S31N, S49A, A53G, S54G, S56G, I57N, K58I
light: B1 light
notes: copies: 1 + 1

EC50 [2]: 0.084 nM
B5: 3000-B06 (other)
VH: B2 VH with S49A, A53N, S54N, S56A, I57Y, K58I
light: B1 light

EC50 [2]: 0.105 nM
B6: 3000-E01 (other)
VH: B2 VH with S49A, A53N, S54N, S56A, I57Y, K58T
surrogate light: B1 light

EC50 [2]: 0.182 nM
B7: 3000-C08 (other)
VH: B2 VH with S49A, L50V, A53N, S54N, S56R, I57Y
surrogate light: B1 light
notes: copies: 1 + 1

EC50 [2]: 0.109 nM
B8: 3000-H03 (other)
VH: B2 VH with S31D, A53N, S54G, S56G, I57Y, K58T
surrogate light: B1 light

EC50 [2]: 0.118 nM
B9: 3000-F09 (other)
VH: B2 VH with S49A, A53S, S56G, K58T
surrogate light: B1 light

EC50 [2]: 0.127 nM
B11: 3000-A04 (other)
VH: B2 VH with S49A, S54G, S56T, I57S
light: B1 light
notes: copies: 1 + 1

EC50 [1]: 0.026 nM
B12: 2995-H03 (other)
VH: B1 VH with N31D, G33W, L50V, S53G, T58K
light: B1 light

EC50 [2]: 0.07 nM
B14: 3000-B09 (other)
VH: B2 VH with S31D, S49A, A53S, S54G, S56G, I57Y
light: B1 light

EC50 [2]: 0.109 nM
B15: 3000-E04 (other)
VH: B2 VH with S31D, S49A, L50V, A53W, S54G, S56A, I57Y
surrogate light: B1 light

EC50 [2]: 0.115 nM
B16: 3000-B02 (other)
VH: B2 VH with S49A, L50V, A53S, S54G, S56N, I57Y, K58I
surrogate light: B1 light

EC50 [2]: 0.087 nM
B19: 3000-A07 (other)
VH: B2 VH with S31D, S49A, L50V, A53G, S54G, S56A, I57Y
surrogate light: B1 light

EC50 [1]: 0.02 nM
B20: 2995-H09 (other)
VH: B1 VH with G33W, L50S, S53N, A56R, T58I
light: B1 light

EC50 [1]: 0.025 nM
B22: 2995-H07 (other)
VH: B1 VH with N31D, G33W, H35N, S53N, G54N, A56S
light: B1 light

EC50 [2]: 0.082 nM
B24: 3000-A05 (other)
VH: B2 VH with S31D, S49A, S54G, S56T, I57Y
light: B1 light

EC50 [1]: 0.063 nM
B26: 2995-H11 (other)
VH: B1 VH with N31D, G33W, A49S, L50A, G54S, A56G, T58K
light: B1 light

EC50 [2]: 0.158 nM
B28: 3000-G09 (other)
VH: B2 VH with S49A, A53N, S54G, S56G, I57Y
light: B1 light
notes: copies: 1 + 1

EC50 [2]: 0.164 nM
B29: 3000-C03 (other)
VH: B2 VH with S49A, A53N, S54N, S56T, I57Y
light: B1 light
notes: copies: 1 + 1

EC50 [2]: 0.139 nM
B30: 3000-A11 (other)
VH: B2 VH with S49A, A53W, S54G, S56G, I57T
light: B1 light
notes: copies: 1 + 1

EC50 [2]: 0.072 nM
B37: 3000-A08 (other)
VH: B2 VH with H35N, S49A, A53N, S54G, S56G
light: B1 light

EC50 [1]: 0.029 nM
B38: 2995-G11 (other)
VH: B1 VH with N31S, G33W, A49S, L50A, A56G, T58I
surrogate light: B1 light
notes: copies: 1 + 1

EC50 [2]: 0.102 nM
B40: 3000-C07 (other)
VH: B2 VH with H35S, S49A, A53N, S54G
surrogate light: B1 light
